We go through 15 molecules from patent US20240392020A1 (JIANGSU HENGRUI PHARMACEUTICALS, published 2024).

Numbering of substitutions follows the chain as printed. Where two headings read alike, the source gives them in different places.

Assay [1] concerns the target T1, CEA on MKN45 cells (UniProt P06731 35-685).
T1 construct: whole, on cells
T1 sequence (looked up): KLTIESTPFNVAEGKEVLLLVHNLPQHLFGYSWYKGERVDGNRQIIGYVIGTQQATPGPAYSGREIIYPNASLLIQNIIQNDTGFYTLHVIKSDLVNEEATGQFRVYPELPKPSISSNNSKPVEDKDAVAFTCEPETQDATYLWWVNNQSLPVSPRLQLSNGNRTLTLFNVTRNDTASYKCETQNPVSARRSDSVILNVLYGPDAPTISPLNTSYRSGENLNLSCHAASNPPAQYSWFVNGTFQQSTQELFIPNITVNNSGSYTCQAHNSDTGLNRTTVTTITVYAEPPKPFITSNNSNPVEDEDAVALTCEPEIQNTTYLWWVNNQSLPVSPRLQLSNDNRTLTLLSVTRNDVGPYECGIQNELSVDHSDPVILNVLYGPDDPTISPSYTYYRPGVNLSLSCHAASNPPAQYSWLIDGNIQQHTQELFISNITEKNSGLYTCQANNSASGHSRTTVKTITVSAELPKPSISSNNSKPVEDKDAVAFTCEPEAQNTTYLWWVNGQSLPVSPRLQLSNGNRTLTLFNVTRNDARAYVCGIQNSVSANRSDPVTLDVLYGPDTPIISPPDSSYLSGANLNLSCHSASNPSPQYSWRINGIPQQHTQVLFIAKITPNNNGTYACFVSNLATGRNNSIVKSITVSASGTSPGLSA
Put plainly: FACS, MKN45 cells. (A flow cytometer gives signals particle by particle.)

The target in assay [2] is T1, CEA on MKN45 cells. As to the kind of experiment: FACS, MKN45 cells. The source holds these as a separate data set.
A further assay concerns the target T2, human TIGIT-his (human, UniProt Q495A1 22-141, limits assumed).
T2 construct: bought; also called hTIGIT
T2 sequence (looked up): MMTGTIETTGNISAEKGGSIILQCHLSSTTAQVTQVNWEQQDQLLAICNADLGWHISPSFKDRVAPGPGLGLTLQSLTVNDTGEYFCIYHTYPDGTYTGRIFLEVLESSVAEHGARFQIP
As to the kind of experiment: SPR Biacore T200, antibody captured on Protein A chip. For orientation: In SPR one partner is held on a chip, and binding of the other changes the refractive index at the surface.

In assay [3] the target is T3, B7H3 on the recombinant cell line CT26-B7H3 (UniProt Q5ZPR3 29-534, limits assumed).
T3 construct: whole, on cells
T3 sequence (looked up): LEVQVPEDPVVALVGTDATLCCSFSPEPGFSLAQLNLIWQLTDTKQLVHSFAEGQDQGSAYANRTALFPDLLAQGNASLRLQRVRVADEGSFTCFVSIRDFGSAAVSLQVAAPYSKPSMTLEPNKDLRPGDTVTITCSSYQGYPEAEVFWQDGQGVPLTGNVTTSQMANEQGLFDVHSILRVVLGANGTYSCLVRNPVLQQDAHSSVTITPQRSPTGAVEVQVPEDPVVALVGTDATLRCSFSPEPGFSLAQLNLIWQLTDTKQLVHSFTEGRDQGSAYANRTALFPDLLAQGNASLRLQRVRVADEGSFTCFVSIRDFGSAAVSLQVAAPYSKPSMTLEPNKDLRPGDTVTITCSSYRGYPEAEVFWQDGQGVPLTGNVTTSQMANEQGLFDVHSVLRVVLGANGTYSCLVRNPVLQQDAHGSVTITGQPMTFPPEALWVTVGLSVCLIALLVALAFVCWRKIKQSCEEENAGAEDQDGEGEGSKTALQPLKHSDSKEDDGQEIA
Put plainly: FACS, CT26-B7H3 cells.

The target in the next assay is T4, hB7H3 antigen protein (human, UniProt Q5ZPR3 29-461).
T4 construct: prepared in the laboratory
T4 sequence: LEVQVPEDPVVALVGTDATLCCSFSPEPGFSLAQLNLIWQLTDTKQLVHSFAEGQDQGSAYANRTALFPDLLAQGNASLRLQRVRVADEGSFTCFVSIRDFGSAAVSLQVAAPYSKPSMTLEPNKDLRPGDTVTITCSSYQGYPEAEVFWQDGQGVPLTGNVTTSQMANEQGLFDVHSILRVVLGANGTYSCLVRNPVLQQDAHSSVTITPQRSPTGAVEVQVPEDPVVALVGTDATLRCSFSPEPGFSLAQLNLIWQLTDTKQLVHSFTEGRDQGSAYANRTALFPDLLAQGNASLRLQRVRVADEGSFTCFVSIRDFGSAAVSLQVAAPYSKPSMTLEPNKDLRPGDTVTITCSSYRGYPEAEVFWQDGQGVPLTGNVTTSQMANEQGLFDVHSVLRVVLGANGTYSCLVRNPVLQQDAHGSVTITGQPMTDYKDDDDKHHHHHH
Put plainly: SPR Biacore T200, antibody captured on Protein A chip.

Another assay has as its target T5, hIL-5 (human, UniProt P05113 20-134).
T5 construct: bought
Put plainly: ELISA.

The next assay has as its target T6, hTSLP (human, UniProt Q969D9 29-159).
T6 construct: bought
Put plainly: ELISA. (In general: In an ELISA, binding on a coated surface is turned into a signal by an enzyme label.)

The target in another assay is T7, hNGF (human, UniProt P01138 122-241, limits assumed).
T7 construct: bought
T7 sequence (P01138 122-241 limits assumed): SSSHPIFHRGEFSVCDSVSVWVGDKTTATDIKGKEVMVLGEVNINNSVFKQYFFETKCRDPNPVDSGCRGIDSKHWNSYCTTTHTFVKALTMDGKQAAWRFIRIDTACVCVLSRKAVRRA
Put plainly: ELISA.

The next assay deals with T8, human PDL1-his (human, UniProt Q9NZQ7 19-239).
T8 construct: bought; also called hPDL1
T8 sequence (Q9NZQ7 19-239 limits assumed): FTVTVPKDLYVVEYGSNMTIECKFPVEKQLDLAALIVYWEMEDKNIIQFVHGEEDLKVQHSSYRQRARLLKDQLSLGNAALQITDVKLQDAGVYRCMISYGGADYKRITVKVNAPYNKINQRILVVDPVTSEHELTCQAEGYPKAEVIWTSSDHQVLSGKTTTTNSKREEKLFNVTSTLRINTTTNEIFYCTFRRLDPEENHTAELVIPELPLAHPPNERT
As to the kind of experiment: SPR Biacore T200, antibody captured on Protein A chip.

Procedure for hB7H3 antigen protein: The affinity of a test antibody for an antigen protein was determined by using a Biacore T200 (GE) instrument. […] The data obtained from the experiment was fitted with BIAevaluation version 4.1, GE software using a (1:1) Langmuir model to obtain affinity values.
Procedure for hIL-5: (§1) For an antibody targeting a soluble protein, the binding activity of the antibody against the soluble protein was detected by ELISA. […] After the blocking was completed, the blocking solution was discarded; and the plate was washed 3 times with a PBST buffer (pH 7.4, PBS containing 0.1% tween-20). 100 μL of the antibody solution diluted in a gradient was added to each well, and the mixture was incubated at 37° C. for 1 h. After the incubation was completed, the plate was washed 3 times with PBST.
Procedure for hTSLP: as §1
Procedure for human PDL1-his: (§2) After dissociation was completed for each cycle, the biosensor chip was washed with 10 mM Gly-HCl at pH 1.5 for regeneration. Data were fitted using a 1:1 model.
Procedure for human TIGIT-his: as §2

B1: N3 (antibody)
heavy: not shown
light: EIVLTQSPGTLSLSPGERATLSCRASQNINNRFLAWYQQRPGQAPRLLIYAASSRATGVPDRFSGSGSGTDFTLTISRLEAEDFAMYHCQQYGSFPRTFGQGTMVDIKSGAPRFLTRPKAFVVSVGKDATLSCQIVGNPTPQVSWEKDQQPVAAGARFRLAQDGDLYRLTILDLALGDSGQYVCRARNAIGEAFAAVGLQVDAEA
Regarding B1, the EC50 (commonly the midpoint of the concentration-response curve) with CEA on MKN45 cells [1] came to 4.5 nM; with CEA on MKN45 cells [2], 6.45 nM.

B2: N6 (antibody)
heavy: not shown
light: B1 light with A111C, C133S, C184S
B2 displayed an EC50 with CEA on MKN45 cells [1] of 8.4 nM.

B3: N4 (antibody)
heavy: not shown
light: EIVLTQSPGTLSLSPGERATLSCRASQNINNRFLAWYQQRPGQAPRLLIYAASSRATGVPDRFSGSGSGTDFTLTISRLEAEDFAMYHCQQYGSFPRTFGQGTMVDIKQGSPPCFLRFPRPVRVVSGAEAELKCVVLGEPPPVVVWEKGGQQLAASERLSFPADGAEHGLLLTAALPTDAGVYVCRARNAAGEAYAAAAVTVLEPP
Regarding B3, the EC50 in the assay with CEA on MKN45 cells [1] worked out at 4.6 nM; in the assay with CEA on MKN45 cells [2] it was 5.93 nM.

B4: N7 (antibody)
heavy: not shown
light: B3 light with C114E, V182C
As for B4, it took 2.8 nM to reach a half-maximal effect with CEA on MKN45 cells [1] (EC50).

B5: N8 (antibody)
heavy: not shown
light: B3 light with C114E, C134S, V182C, C185S
For the molecule B5, in the assay with CEA on MKN45 cells [1], the EC50 was 2.6 nM.

B6: h1708-04 (antibody, human IgG1, kappa, V domains shown)
VH: EVQLVQSGAEVKKPGASVKVSCKASGYTFTNYWMHWVRQAPGQGLEWMGRIDPDSTGSKYNEKFKTRVTMTRDTSTSTVYMELSSLRSEDTAVYYCAREGAYGYYFDYWGQGTLVTVSS
VL: DIQMTQSPSSLSASVGDRVTITCRASENIYSYLAWYQQKPGKSPKLLIYNARTLAEGVPSRFSGSGSGTDFTLTISSLQPEDFATYYCQYHSGSPLPFGGGTKVEIKR
notes: also called T-IgG1; TIGIT monoclonal antibody
Take B6: in the assay with human TIGIT-his, the Kd – broadly, a measure of binding affinity in units of concentration – turned out to be 0.0651 nM; the koff (in general, the rate constant with which the complex falls apart) worked out at 0.000139 s⁻¹; the kon (usually a measure of how fast the partners come together) is 2.14e+06 M⁻¹ s⁻¹.

B7: F0 (antibody, human IgG1, lambda)
heavy: not shown
light: DTVVTQEPSFSVSPGGTVTLTCGLSSGSVSTSHYPSWYQQTPGQAPRMLIYNTNTRSSGVPDRFSGSILGNKAALTITGAQADDESDYYCAIHVDRDIWVFGGGTKLTVLGQPKAAPSVTLFPPSSEELQANKATLVCLISDFYPGAVTVAWKADSSPVKAGVETTTPSKQSNNKYAASSYLSLTPEQWKSHRSYSCQVTHEGSTVEKTVAPTECS
With B7, the EC50 in assay [3] came out at 1.29 nM. In the assay with hB7H3 antigen protein, this molecule gave a Kd of 13.1 nM, an off-rate (koff) of 0.00206 s⁻¹ and a kon of 157000 M⁻¹ s⁻¹.

B8: HJ-11 (bispecific antibody, human IgG1, kappa, L234A L235A)
heavy 1: not shown
light 1: DIQMTQSPSSVSASVGDRVTITCRASQDIANYLSWYQQKPGKSPKLLIYGTSNLEVGVPSRFSGSRSGTDFTLTISSLQPEDFATYYCLQDKEFPRTFGGGTKVEIKRTVASSGCPRFLTRPKASVVSVGKDATLSCQIVGNPFPQVSWEKDKQPVTAGVRFRLAQDGDLYRLKILDLQLSDSGQYVCRARNAHGEAFACLGLQVDAEA
heavy 2: EVQLVQSGAEVKKPGSSVKVSCKASGYTFSNYLIEWVRQAPGQGLEWIGVIDPGVGDTNYNENFKGRATLTADKSTSTAYIELSSLRSEDTAVYYCAREDNTGTAFDYWGQGTTVTVSSASTKGPSVFPLAPSSKSTSGGTAALGCLVKDYFPEPVTVSWNSGALTSGVHTFPAVLQSSGLYSLSSVVTVPSSSLGTQTYICNVNHKPSNTKVDKKVEPKSCDKTHTCPPCPAPEAAGGPSVFLFPPKPKDTLMISRTPEVTCVVVDVSHEDPEVKFNWYVDGVEVHNAKTKPREEQYNSTYRVVSVLTVLHQDWLNGKEYKCKVSNKALPAPIEKTISKAKGQPREPQVCTLPPSREEMTKNQVSLSCAVKGFYPSDIAVEWESNGQPENNYKTTPPVLDSDGSFFLVSKLTVDKSRWQQGNVFSCSVMHEALHNHYTQKSLSLSPGK
light 2: SIVMTQTPLSLSVTPGQPASISCKASQSVSSDVTWYLQKPGQSPQLLIYYVSEHYTGVPDRFSGSGYGTDFTLKISRVEAEDVGVYYCQQHHRFPLTFGQGTKLEIKRTVAAPSVFIFPPSDEQLKSGTASVVCLLNNFYPREAKVQWKVDNALQSGNSQESVTEQDSKDSTYSLSSTLTLSKADYEKHKVYACEVTHQGLSSPVTKSFNRGEC
Turning to B8, the results for the EC50 with hIL-5 and with hTSLP were 9.46 nM and 3 nM, respectively.

B9: I2 (antibody)
heavy: not shown
light: DIQMTQSPSSLSASVGDRVTITCRASQSISNNLNWYQQKPGKAPKLLIYYTSRFHSGVPSRFSGSGSGTDFTFTISSLQPEDIATYYCQQEHTLPYTFGQGTKLEIKSGAPRFLTRPKSYTVSVGKDASLSSQIVGNPTPQVSWEKDQQPVAAGARFRLAQDGDLYRLKILDLALGDSGQYVSRARNAIGEAFACVGLQVDAEA
As for B9, the EC50 with hNGF was 3.19 nM.

B10: I3 (antibody)
heavy: not shown
light: B9 light with K118L, S119A, Y120F, T121V, S129T, Q148K, A152T, A174Q, G176S, V196L
For the molecule B10, the EC50 in the assay with hNGF came out at 2.99 nM.

B11: h1831K (antibody, human IgG1, kappa, V domains shown)
VH: QVQLVQSGAEVKKPGASVKVSCKASGYTFTSYWMHWVRQAPGQGLEWMGRITPSSGFAMYNEKFKNRVTMTRDTSTSTVYMELSSLRSEDTAVYYCARGGSSYDYFDYWGQGTTVTVSS
VL: DIVLTQSPASLAVSPGQRATITCRASESVSIHGTHLMHWYQQKPGQPPKLLIYAASKLESGVPARFSGSGSGTDFTLTINPVEAEDTANYYCQQSFEDPLTFGQGTKLEIKR
notes: also called P-IgG1; PDL1 monoclonal antibody
For the molecule B11, in the assay with human PDL1-his, the Kd amounted to 0.0417 nM, the koff was found to be 8.67e-05 s⁻¹ and the kon was determined as 2.08e+06 M⁻¹ s⁻¹.

B12: I6 (antibody)
heavy: not shown
light: DIQMTQSPSSLSASVGDRVTITCRASQSISNNLNWYQQKPGKAPKLLIYYTSRFHSGVPSRFSGSGSGTDFTFTISSLQPEDIATYYCQQEHTLPYTFGQGTKLEIKSGAPRFLTRPLAFVVSVGKDATLSSQIVGNPTPQVSWEKDQLPVTAGARFRLAQDGDLYRLKILDLTLSDSGQYVSRARNAIGEAFACVGLEVGAEA
B12 had a half-maximal effective concentration (EC50) in the assay with hNGF of 4.12 nM.

B13: I7 (antibody)
heavy: not shown
light: B12 light with A119S, F120Y, T129S, T174Q
For the molecule B13, the EC50 with hNGF is 3.15 nM.

B14: I5 (antibody)
heavy: not shown
light: B12 light
On to B14, for which a half-maximal response with hNGF (EC50) required 3.59 nM.

B15: I4 (antibody)
heavy: not shown
light: B12 light
In turn, B15 returned an EC50 with hNGF of 4.13 nM.
